Assay results published in article PMC4425898, “High yield purification of Helicobacter pylori neutrophil-activating protein overexpressed in Escherichia coli” (BMC Biotechnology, 2015).

Target: the molecule itself
Test: native gel or EMSA; native-PAGE (10% acrylamide) of load, unbound, wash and elution fractions of DEAE Sephadex and DEAE Sepharose batch chromatography; 20 mM Tris-HCl, pH 7.0 to 9.0, 50 mM NaCl (1 M NaCl for elution), 4°C

B1: Helicobacter pylori neutrophil-activating protein (natural protein)
chain: MKTFEILKHLQADAIVLFMKVHNFHWNVKGTDFFNVHKATEEIYEEFADMFDDLAERIVQLGHHPLVTLSEAIKLTRVKEETKTSFHSKDIFKEILEDYKYLEKEFKELSNTAEKEGDKVTVTYADDQLAKLQKSIWMLQAHLA
notes: subunit of about 17 kDa on SDS-PAGE; No tag is named; its own experiments show only an oligomer; also called HP-NAP; recombinant HP-NAP; source: E. coli BL21(DE3), plasmid pET42a-NAP; copies: 12
  binding result: binds
